Measurements reported in doi:10.1101/2020.10.08.331538 (bioRxiv, 2020).
“And” between values parts separate entries of the source, which are not always exact repeats. Equal values may be shown once.

Experiments:
[1] = target: Pv-M17Δ53-78, Pv-M17 N-terminal loop deletion mutant (Plasmodium vivax) (UniProt A5K3U9); assay: crystal structure
AUC [2] = target: the molecule itself; assay: AUC
SEC-MALS = target: the molecule itself; assay: SEC-MALS
SEC = target: the molecule itself; assay: SEC
AUC [3] = target: the molecule itself; assay: AUC; remark: listed apart in the source
AUC [4] = target: the molecule itself; assay: AUC; remark: listed apart in the source

“Pv-M17Δ53-78, Pv-M17 N-terminal loop deletion mutant (from UniProt A5K3U9 73-621) (enzyme)” showed a stoichiometry N [1] of 6.

B1: Pv-M17, M17 aminopeptidase from Plasmodium vivax, wild type (residues 73 – 621) (enzyme)
chain: MATTVPQVVSLDPTTIPIDYHTPIDDLSIEVKDISAEACPADEGLIVFLLNSAPKHSSSGGSGGNGGSAGSSGNGEGGAQIKINSSVKDNTINEFLKEGNMENFTGKLGTSKSFYIANDQKKYVSLAYVGCGPANEETELEIRKVAYALVTLLHDSKHKKVSIIFEIKIEEALFRFFLEHLFYEYVTDERFKSADKSTETDFIKNLSLHIANADAYKGQIDKARVYFYGTYYAAQLIAAPSNYCNPVSLSNAAVELAQKVNLECKILDVKELEELKMGAYLSVGKGSMYPNKFIHLTYKGAQTGASQNEKKKIALIGKGITFDSGGYNLKAAPGSMIDLMKFDMSGCAAVLGCAYCIGTIKPDNVEVHFLSAVCENMVSKNSYRPGDIITASNGKTIEVGNTDAEGRLTLADALVYAEKLGVDYIVDIATLTGAMLYSLGTSYAGVFGNNDQLINKILSSSKTSNEPVWWLPIINEYRSSLNSKYADLNNISSSVKASSVVASLFLKEFIENTPWAHIDIAGVSWNFKARKPKGFGVRLLTEFVLNDAV
In the case of B1, the “stoichiometry N” value (AUC [2]) is reported as 6, the “stoichiometry N” value (SEC-MALS) is reported as ~6 and ~2 and the “stoichiometry N” value (SEC) is reported as 4. For the same molecule, the “stoichiometry N” value (AUC [3]) was 2.

B2: PfA-M17, M17 aminopeptidase from Plasmodium falciparum, wild type (enzyme)
chain: MASEVPQVVSLDPTSIPIEYNTPIHDIKVQVYDIKGGCNVEEGLTIFLVNNPGKENGPVKISSKVNDKNVSEFLKDENMEKFNVKLGTSKHFYMFNDNKNSVAVGYVGCGSVADLSEADMKRVVLSLVTMLHDNKLSKLTVVFEINVDKNLFRFFLETLFYEYMTDERFKSTDKNVNMEYIKHLGVYINNADTYKEEVEKARVYYFGTYYASQLIAAPSNYCNPVSLSNAAVELAQKLNLEYKILGVKELEELKMGAYLSVGKGSMYPNKFIHLTYKSKGDVKKKIALVGKGITFDSGGYNLKAAPGSMIDLMKFDMSGCAAVLGCAYCVGTLKPENVEIHFLSAVCENMVSKNSYRPGDIITASNGKTIEVGNTDAEGRLTLADALVYAEKLGVDYIVDIATLTGAMLYSLGTSYAGVFGNNEELINKILNSSKTSNEPVWWLPIINEYRATLNSKYADINNISSSVKASSIVASLFLKEFVQNTAWAHIDIAGVSWNFKARKPKGFGVRLLTEFVLNDAL
B2 was tested, and the “stoichiometry N” value (SEC-MALS) was ~6, the “stoichiometry N” value (AUC [4]) was 6 and the “stoichiometry N” value (AUC [3]) was 2.

B3: PfA-M17 (D379A + E461L) (enzyme)
chain: MASEVPQVVSLDPTSIPIEYNTPIHDIKVQVYDIKGGCNVEEGLTIFLVNNPGKENGPVKISSKVNDKNVSEFLKDENMEKFNVKLGTSKHFYMFNDNKNSVAVGYVGCGSVADLSEADMKRVVLSLVTMLHDNKLSKLTVVFEINVDKNLFRFFLETLFYEYMTDERFKSTDKNVNMEYIKHLGVYINNADTYKEEVEKARVYYFGTYYASQLIAAPSNYCNPVSLSNAAVELAQKLNLEYKILGVKELEELKMGAYLSVGKGSMYPNKFIHLTYKSKGDVKKKIALVGKGITFASGGYNLKAAPGSMIDLMKFDMSGCAAVLGCAYCVGTLKPENVEIHFLSAVCENMVSKNSYRPGDIITASNGKTIEVGNTDALGRLTLADALVYAEKLGVDYIVDIATLTGAMLYSLGTSYAGVFGNNEELINKILNSSKTSNEPVWWLPIINEYRATLNSKYADINNISSSVKASSIVASLFLKEFVQNTAWAHIDIAGVSWNFKARKPKGFGVRLLTEFVLNDAL
B3: binds (AUC [3]).
